Changes are numbered by the printed parent chain. In names and notes the source's numbering stands. Each block holds one binder with its values, some of them ahead of it.
What was measured:
LC3B H27A = LC3B H27A (UniProt Q9GZQ8 2-119, His27 to alanine); assay: AUC; sedimentation velocity, c(s) analysis of equimolar mixtures, 20 μM each; 20 °C, 50,000 rpm; 10 mM Tris/HCl pH 8, 150 mM NaCl, 0.1 mM TCEP; shift of the fast-moving peak; conditions: both partners purified
LC3B I23R = LC3B I23R (UniProt Q9GZQ8 2-119, Ile23 to arginine); assay: as above; conditions: both partners purified
[1] = target: the molecule itself; assay: AUC; sedimentation velocity, c(s) analysis of each protein alone at 20 μM; 20 °C; 10 mM Tris/HCl pH 8, 150 mM NaCl, 0.1 mM TCEP
GABARAPL1 = target: T1, GABARAPL1 (UniProt Q9H0R8 1-117); assay: AUC; sedimentation velocity, 20 μM RhT5 88–296 EK/RD with 0–320 μM LC3B or GABARAPL1; S value of the fast peak against concentration, one-site binding model; 20 °C; 10 mM Tris/HCl pH 8, 150 mM NaCl, 0.1 mM TCEP; conditions: both partners purified
T1 construct: also called mATG8 isoform GABARAPL1

[2] = target: the molecule itself; assay: SEC-MALS + AUC; Trim5α mutants alone; SEC–MALLS on Superdex 75 Increase 10/300 in 10 mM Tris/HCl pH 7.8, 150 mM NaCl, 0.1 mM TCEP, 3 mM azide, and c(s) analysis of sedimentation velocity
[3] = target: autophagy-related protein LC3 B (LC3B), construct 2–119 (UniProt Q9GZQ8 2-119); assay: AUC; sedimentation velocity, c(s) analysis of equimolar mixtures, 20 μM each; 20 °C, 50,000 rpm; 10 mM Tris/HCl pH 8, 150 mM NaCl, 0.1 mM TCEP; shift of the fast-moving peak; conditions: both partners purified

B1: Trim5α from Rhesus macaque, Bbox coiled-coil regions, residues 88–296 with the E120K/R121D mutation (domain or fragment, UniProt Q0PF16 88-296, looked up)
chain: PEEGQKVDHCARHGEKLLLFCQEDSKVICWLCKDSQEHRGHHTFLMEEVAQEYHVKLQTALEMLRQKQQEAEKLEADIREEKASWKIQIDYDKTNVSADFEQLREILDWEESNELQNLEKEEEDILKSLTKSETEMVQQTQYMRELISELEHRLQGSMMDLLQGVDGIIKRIENMTLKKPKTFHKNQRRVFRAPDLKGMLDMFRELTDA
binding result (LC3B H27A): binds
binding result (LC3B I23R): binds
stoichiometry N [1]: 2
Kd (GABARAPL1): 78 ± 6 µM

B2: RhT5 88–296 EK/RD E192A (domain or fragment, Rhesus macaque, UniProt Q0PF16 88-296, looked up)
chain: B1 chain with E105A
stoichiometry N [2]: 2

B3: W196A RhT5 88–296 EK/RD (domain or fragment, Rhesus macaque, UniProt Q0PF16 88-296, looked up)
chain: B1 chain with W109A
stoichiometry N [2]: 2

B5: RhT5 88–296 EK/RD E206K (domain or fragment, Rhesus macaque, UniProt Q0PF16 88-296, looked up)
chain: B1 chain with E119K
stoichiometry N [2]: 2

B8: RhT5 88–296 EK/RD E206A (domain or fragment, Rhesus macaque, UniProt Q0PF16 88-296, looked up)
chain: B1 chain with E119A
stoichiometry N [2]: 2

B9: RhT5 88–296 EK/RD E192K (domain or fragment, Rhesus macaque, UniProt Q0PF16 88-296, looked up)
chain: B1 chain with E105K
stoichiometry N [2]: 2

Now from value to binder, other results behind:

binding result [3]: binds
B4: RhT5 88–296 EK/RD E198K (domain or fragment, Rhesus macaque, UniProt Q0PF16 88-296, looked up)
chain: B1 chain with E111K
stoichiometry N [2]: 2

binding result [3]: binds
B6: RhT5 88–296 EK/RD Q189A (domain or fragment, Rhesus macaque, UniProt Q0PF16 88-296, looked up)
chain: B1 chain with Q102A
stoichiometry N [2]: 2

binding result [3]: binds
B7: RhT5 88–296 EK/RD Q203A (domain or fragment, Rhesus macaque, UniProt Q0PF16 88-296, looked up)
chain: B1 chain with Q116A
stoichiometry N [2]: 2

binding result [3]: binds
B10: RhT5 88–296 EK/RD E197A (domain or fragment, Rhesus macaque, UniProt Q0PF16 88-296, looked up)
chain: B1 chain with E110A
stoichiometry N [2]: 2

From article PMC6254359, “A helical LC3-interacting region mediates the interaction between the retroviral restriction factor Trim5α and mammalian autophagy-related ATG8 proteins” (The Journal of Biological Chemistry, 2018)
